Reference: patent publication US20150203579A1 (Regeneron, published 2015)

T1: recombinant cynomolgus monkey PD-1 expressed with a C-terminal myc-myc-hexahistidine tag (cynomolgus monkey (Macaca fascicularis))
T1 construct: Monomeric reagent; also called MfPD-1-MMH
T1 chain: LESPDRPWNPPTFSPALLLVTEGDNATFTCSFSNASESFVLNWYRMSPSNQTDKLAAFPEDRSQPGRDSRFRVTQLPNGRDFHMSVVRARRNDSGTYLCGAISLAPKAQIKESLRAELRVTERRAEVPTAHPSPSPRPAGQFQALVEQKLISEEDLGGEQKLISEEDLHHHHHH

T2: monkey PD-1 with mFc (monkey (MfPD-1))
T2 construct: also called monkey PD-1-mFc; monkey PD-1 dimer
T2 chain: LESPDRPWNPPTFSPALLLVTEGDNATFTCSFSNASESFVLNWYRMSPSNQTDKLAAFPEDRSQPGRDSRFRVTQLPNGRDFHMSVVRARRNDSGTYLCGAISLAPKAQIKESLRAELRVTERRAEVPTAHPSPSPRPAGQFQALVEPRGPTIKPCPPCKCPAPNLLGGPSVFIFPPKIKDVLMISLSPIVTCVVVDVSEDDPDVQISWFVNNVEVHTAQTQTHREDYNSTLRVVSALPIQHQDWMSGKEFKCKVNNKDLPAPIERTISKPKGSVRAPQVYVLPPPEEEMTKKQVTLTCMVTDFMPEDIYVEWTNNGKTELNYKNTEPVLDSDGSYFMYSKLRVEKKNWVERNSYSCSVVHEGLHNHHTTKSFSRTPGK


Key:
[1] = biological target: T3, recombinant human PD-1 expressed with a C-terminal myc-myc-hexahistidine tag (human); assay: SPR (Biacore), mAb captured, hPD-1-MMH injected, 25 C;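 note: rate constants obtained by fitting sensorgrams to a 1:1 binding model, KD derived as kd/ka and half-life as ln2/(60·kd) in minutes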
T3 construct: also called hPD-1-MMH; human PD-1-MMH

[2] = biological target: T4, recombinant human PD-1 dimer expressed with a C-terminal mouse IgG2a Fc tag (human); assay: competition ELISA: blocking 1.5 nM hPD-1-mFc binding to coated hPD-L1-hFc; end tied to H4xH9048P2 by Table 12
T4 construct: also called hPD-1-mFc; human PD-1-mFc

[3] = biological target: PD-1 chimera: extracellular domain of human PD-1 with trans-membrane and cytoplasmic domains of human CD300a, … (human, UniProt Q9UGN4 181-299, limits assumed); assay: cell-based or functional assay
[4] = biological target: T3, recombinant human PD-1 expressed with a …; assay: SPR (Biacore), hPD-1-MMH, 37 C; end of range tied to H2aM7798N by Table 5
[5] = biological target: T1, recombinant cynomolgus monkey PD-1 …; assay: SPR (Biacore), MfPD-1-MMH, 37 C; end of range tied to H2aM7798N by Table 9
[6] = biological target: T5, human PD-1 dimer (human PD-1-mFc or human PD-1-hFc) (human, UniProt Q15116 25-170); assay: SPR (Biacore), hPD-1 dimer (mFc or hFc), 25 C; end of range tied to H2aM7798N by Table 6
T5 construct: also called hPD-1 dimer proteins

[7] = biological target: T4, recombinant human PD-1 dimer expressed …; assay: competition ELISA: blocking 100 pM hPD-1-mFc binding to coated hPD-L2-hFc; end tied to H2aM7798N by Table 14
[8] = biological target: T6, full length human PD-1 on HEK293 cells (HEK293/hPD-1) (human, UniProt Q15116 25-288); assay: FACS, dose titration on HEK293/hPD-1 cells; end tied to H4H7798N by Table 21
T6 construct: also called human PD-1 expressing cells

[9] = biological target: T2, monkey PD-1 with mFc; assay: SPR (Biacore), monkey PD-1-mFc, 25 C; end of range tied to H4H7798N by Table 10
[10] = biological target: T3, recombinant human PD-1 expressed with a …; assay: SPR (Biacore), hPD-1-MMH, 37 C; end of range tied to H2aM7796N by Table 5
[11] = biological target: T6, full length human PD-1 on HEK293 cells …; assay: FACS, dose titration on HEK293/hPD-1 cells; end tied to H2aM7796N by Table 21
[12] = biological target: T7, dimeric biotinylated human PD-1 protein, human PD-1 extracellular domain with a C-terminal human Fc tag (human, biotinylated (sites not given)); assay: competition ELISA: blocking 200 pM biot-hPD-1-hFc binding to coated hPD-L1-mFc; end tied to H2aM7796N (and H4xH9008P) by Table 13
T7 construct: also called biot-hPD-1-hFc

[13] = biological target: T6, full length human PD-1 on HEK293 cells …; assay: FACS, dose titration on HEK293/hPD-1 cells; end tied to H1M7799N by Table 20
[14] = biological target: T7, dimeric biotinylated human PD-1 …; assay: competition ELISA: blocking 200 pM biot-hPD-1-hFc binding to coated hPD-L1-mFc; end tied to H1M7799N by Table 13 (below theoretical bottom 100 pM)

Binder	Kd [1]	koff [1]	kon [1]	t½ [1]	IC50 [2]	Emax, AP1-Luc signal at 100 nM antibody (% of signal without anti-PD-1 antibody) [3]	Kd [4]	Kd [5]	Kd [6]	IC50 [7]	EC50 [8]	Kd [9]	Kd [10]	EC50 [11]	IC50 [12]	EC50 [13]	IC50 [14]
H4xH9048P2 (antibody, human IgG4, V domains shown, H4xH: modified human IgG4 Fc) VH: QVQLVQSGAEVKRPGSSVKVSCKVSGVTFRNFAIIWVRQAPGQGLEWMGGIIPFFSAANYAQSFQGRVTITPDESTSTAFMELASLRSEDTAVYYCAREGERGHTYGFDYWGQGTLVTVSS VL: not shown	8.95 nM	0.00123 s⁻¹	137000 M⁻¹ s⁻¹	9.4 min	3.3 nM												
H2aM7798N (antibody, mouse IgG2a, V domains shown, Human variable domains, mouse IgG2a Fc; also called H2M7798N) VH: EVQLLESGGVLVQPGGSLRLSCAASGFTFSNFGMTWVRQAPGKGLEWVSGISGGGRDTYFADSVKGRFTISRDNSKNTLYLQMNSLKGEDTAVYYCVKWGNIYFDYWGQGTLVTVSS VL: DIQMTQSPSSLSASVGDSITITCRASLSINTFLNWYQQKPGKAPNLLIYAASSLHGGVPSRFSGSGSGTDFTLTIRTLQPEDFATYYCQQSSNTPFTFGPGTVVDFR	2.31 nM	0.000306 s⁻¹	132000 M⁻¹ s⁻¹	38 min		239%	3.79 nM	7 nM	0.0655 nM	0.13 nM							
H4H7798N (antibody, human IgG4 S228P, kappa, V domains shown) VH: EVQLLESGGVLVQPGGSLRLSCAASGFTFSNFGMTWVRQAPGKGLEWVSGISGGGRDTYFADSVKGRFTISRDNSKNTLYLQMNSLKGEDTAVYYCVKWGNIYFDYWGQGTLVTVSS VL: DIQMTQSPSSLSASVGDSITITCRASLSINTFLNWYQQKPGKAPNLLIYAASSLHGGVPSRFSGSGSGTDFTLTIRTLQPEDFATYYCQQSSNTPFTFGPGTVVDFRR	3.01 nM	0.000443 s⁻¹	147000 M⁻¹ s⁻¹	26 min		343%					0.509 nM	0.137 nM					
H2aM7796N (antibody, mouse IgG2a, V domains shown, Human variable domains, mouse IgG2a Fc; also called H2M7796N) VH: QVQLVESGGGVVQPGRSLRLSCAASGFTFSSYGMHWVRQAPGKGLEWVAIIWSDGDSEYNLDSVKGRFTISRDNSKNTLYLQMNSLRVEDSAVYYCARDRDLEDIWGQGTMVTVSS VL: DIQMTQSPSSLSASVGDRVTITCRASQGIRNDLGWYQQKPGKAPKRLIYAASNLQSGVPSRFSGSGSGTEFTLTISSLQPEDFATYYCLQHNSYPLTFGGGTKVEIK	286 nM	0.00193 s⁻¹	6730 M⁻¹ s⁻¹	6 min									1510 nM	4.81 nM	1.3 nM		
H1M7799N (antibody, mouse IgG1, V domains shown, Human variable domains, mouse IgG1 Fc) VH: EVQLVESGGGLVQPGGSLRLSCAASGFTVSNNYMSWVRQAPGKGLEWVSVIYSGGFTYYTDSVKGRFTISRHNSKNTLYLQMNSLRAEDTAVYYCARYYYDTSDYWTFFDYWGQGTLVTVSS VL: EIVMTQSPATLSVSPGERATLSCRASQSVSSNLAWYQQKPGQAPRLLIYGASTRATGIPARFSGSGSGTEFTLTISSLQSGDFAVYYCQQYNNWPLTFGGGTKVEIN	244 nM	0.0123 s⁻¹	50400 M⁻¹ s⁻¹	0.9 min												0.0332 nM	0.059 nM
